According to US20100290984A1 (DUKE UNIVERSITY, published 2010):
No end group written: not given here.

Assays:
[1] = molecular target: T1, MRP3-derived peptide I (PepI) (human, conjugated to BSA in the ELISA; biotinylated in BIAcore and on streptavidin beads (site of attachment not stated)); assay: SPR, BIAcore 3000, KA=kassoc/kdiss
T1 construct: Same peptide used as BSA conjugate (ELISA) and as biotinylated peptide (SPR on SA chip, bead assay); also called PepI antigen
T1 peptide: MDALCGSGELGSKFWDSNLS
Description: (§1) Kinetic measurements of purified recombinant scFv were made by surface plasmon resonance using a BIAcore 3000 Biosensor (BIAcore, Piscataway, N.J.). Chips were functionalized with biotinylated peptides derived from MRP3 protein by using HEPES balanced salt solution (HBSS buffer), 10 mM HEPES pH 7.4, 150 mM NaCl, 3.4 mM EDTA, and 0.05% BIAcore surfactant P20. The scFv antibodies were diluted in HBSS buffer and passed over the SA chip at concentrations of 25, 200, and 1000 nM. The flow rate was kept at 30 μl/min, and the injection time was 3 min. Binding constants were calculated from the nonlinear fitting curve by using the BlAevaluation software (BIAcore).
(§2) The association and dissociation rates from the sensograms were in the same range for PepI-58 scFv, PepI-25 scFv, and PepII-89 scFv. […] The final binding affinity was determined by the software developed by BIAcore based on the kinetics calculated among various concentrations of antibody. PepI-25 scFv had kassoc=1.3×10⁵ (mol/L-s)⁻¹, kdiss=2.8×10⁻³ s⁻¹, and KA=kassoc/kdiss, was 4.6×10⁷ (mol/L)⁻¹.

[2] = molecular target: T2, MRP3-derived peptide II (PepII) (human, also: conjugated to BSA, biotinylated, site not given here); assay: ELISA, peptide-BSA coated, purified scFv, anti-His-HRP
T2 construct: Same peptide used as BSA conjugate (ELISA) and as biotinylated peptide (SPR on SA chip, bead assay); also called PepII antigen
T2 peptide: VHTENPDLTPCF
Description: (§3) A 96-well plate was coated with 10 μg/ml of specific MRP3-derived peptides conjugated with BSA as antigen and BSA and other appropriate control antigens. The rest of the protocol was as described above except that the purified scFv antibodies were added in serial dilution to the wells, and the secondary Ab used was HRP-conjugated anti-His antibody at 1:5000 dilution (Invitrogen, Carlsbad, Calif.). To check for cross-reactivity of the recombinant scFvs, the ELISA plate was coated with different peptide antigens (i.e., PepI, PepII, PepIII, PepIV) derived from MRP3, conjugated to BSA with other controls. ScFv antibodies were then added at a 10 μg/ml concentration to each well.

[3] = molecular target: T3, MRP3-derived peptide III (PepIII) (human, also: conjugated to BSA, biotinylated, site not given here); assay: as above
T3 construct: Same peptide used as BSA conjugate (ELISA) and as biotinylated peptide (SPR)
T3 peptide: DAMADSRQNNTSLRL
Description: as §3

[4] = molecular target: T4, MRP3-derived peptide IV (PepIV) (human, also: conjugated to BSA, biotinylated, site not given here); assay: as above
T4 construct: Same peptide used as BSA conjugate (ELISA) and as biotinylated peptide (SPR)
T4 peptide: KIRSPQSFFDTTPSGRI
Description: as §3

[5] = molecular target: T1, MRP3-derived peptide I (PepI); assay: SPR, BIAcore 3000, biotinylated pep-I on SA chip, scFv 25 to 1000 nM
Description: as §1, §2

[6] = molecular target: T5, human multidrug resistance protein 3 (MRP3) (human, UniProt O15438 1-1527); assay: indirect flow cytometry on viable D2159 cells (surface), anti-His-FITC detection
T5 construct: whole, on cells; ABC transporter; endogenous on human malignant glioma cell lines D54MG, D247MG and pediatric GBM line D2159; also called cell-surface-expressed MRP3; native MRP3

[7] = molecular target: T2, MRP3-derived peptide II (PepII); assay: SPR, BIAcore 3000, KA=kassoc/kdiss
Description: as §1, §2

[8] = molecular target: T2, MRP3-derived peptide II (PepII); assay: SPR, BIAcore 3000, biotinylated peptide on SA chip, scFv in flow
Description: as §1

[9] = molecular target: T1, MRP3-derived peptide I (PepI); assay: ELISA, plate coated with MRP3-derived peptides conjugated with BSA, purified scFv, HRP anti-His detection
Description: as §3

[10] = molecular target: T3, MRP3-derived peptide III (PepIII); assay: as above
Description: as §3

[11] = molecular target: T4, MRP3-derived peptide IV (PepIV); assay: as above
Description: as §3

[12] = molecular target: T3, MRP3-derived peptide III (PepIII); assay: SPR, BIAcore, biotinylated peptide on chip
[13] = molecular target: T1, MRP3-derived peptide I (PepI); assay: ELISA, peptide-BSA coated, purified scFv, anti-His-HRP
Description: as §3

[14] = molecular target: T5, human multidrug resistance protein 3 …; assay: indirect flow cytometry on MRP3-expressing glioma cells
Description: To determine that the purified anti-MRP3 scFvs bind native MRP3 expressed on the surface of tumor cells, indirect fluorescence-activated cell sorting (FACS) was performed using MRP3-expressing D54MG and D247MG cells under both permeabilized and nonpermeabilized conditions. Indirect FACS analysis of MRP3 expression on the surface of viable malignant pediatric GBM cell line D2159 growing as neuroshperes was also performed.
For cytometric analysis of PepI-58, PepI-25, PepII-89, PepIII-23, and PepIV-17 scFv antibodies, D54MG and D247MG cells (1×10⁶/test) were harvested with 0.02% EDTA/PBS and fixed by resuspending them in 2-4 ml of 10% formaldehyde. After washing, the cells were blocked with 10% normal goat serum (NGS) with and without saponin for 20 min. Saponin was added to facilitate the permeabilization for examining all […] receptors. Cells were washed twice and incubated with anti-his (C-terminus)-FITC conjugated antibody (1:5000, Invitrogen, Carlsbad, Calif.) for an hour at room temperature. Finally, cells were suspended in 0.5% PFA/BSA and freshly analyzed by using a Becton Dickinson FACSort with CellQuest software (Becton Dickinson, San Jose, Calif.).

[15] = molecular target: T1, MRP3-derived peptide I (PepI); assay: SPR, BIAcore 3000, biotinylated peptide on SA chip, scFv in flow
Description: as §1

[16] = molecular target: T2, MRP3-derived peptide II (PepII); assay: ELISA, plate coated with MRP3-derived peptides conjugated with BSA, purified scFv, HRP anti-His detection
Description: as §3

B1: PepI-25 scFv (scFv)
scFv: EVQLVESGGGLVQPGGSLRLSCAASGFTFSNYAMTWVRQAPGKGLEWVSAISGSGGSTYYADSVKGRFTISRDNSKNTLYLQMNSLRAEDTAVYYCATGDLDYWGQGTTVTVSSGGGGSGGGGSGGGGSQTVVTQEPSLTVSPGGTVTLTCASSTGAVTSGYYPNWFQQKPGQAPRALIYSTSNKHSWTPARFSGSLLGGKAALTLSGVQPEDEAEYYCLLYYGGAQPYVVFGGGTKVTVLGQPKAAPS
notes: not shown: Myc and hexahistidine tags from the pET 22(+) vector
Ka [1]: 4.6e+07 M⁻¹
binding result [2]: no binding (tested: 10 µg/ml)
binding result [3]: no binding (tested: 10 µg/ml)
binding result [4]: no binding (tested: 10 µg/ml)
koff [5]: 0.0028 s⁻¹
binding result [6]: binds

B2: PepII-89 scFv (scFv)
scFv: QVQLVQSGGGVVQPGRSLRLSCAASGFTFSSYGMHWVRQDPGKGLMWVSSISTDGSATKYADSVKGRFTISRDNAKNTVSLQMNSLRAEDTAVYYCVGGFLGWWGQGTLVTVSSGGGGSGGGGSGGGGSEIVLTQSPATLSLSPGERATLSCRASQSVGGSYLAWYQQKPGQAPRLLIYGASRRATGIPARFSGSGSGTDFTLTISSLQPEDFASYFCQQTNTFPLTFGGGTKVEIKRTVAAPTAAA
notes: also called anti-MRP3 PepII-89scFv; not shown: Myc and hexahistidine tags from the pET 22(+) vector, at the C terminus
Ka [7]: 1e+07 M⁻¹
koff [8]: 0.005 s⁻¹
binding result [9]: no binding (tested: 10 ug/ml)
binding result [10]: no binding (tested: 10 ug/ml)
binding result [11]: no binding (tested: 10 ug/ml)

B3: PepIII-23 scFv (scFv)
scFv: EVQLVQSGGGLVKPGGSLRLSCAASGFSFNNYAGSWVRQAPGKGLEWISALSSGGDTTYYADSVAGRFAISRDNSKNTLYLQMHSLRAEDTAIYYCAQDPVVGAPGYFGLWGRGTLVTVSSGGGGSGGGGSGGGGSQSVLTQPPSASGSSGQSVTISCTGTSSDIGGYNYVSWYQQHPGKAPKLMIYEVSKRPSGVSDRFSGSKSGSTASLHISGLQAEDEADYYCSSYSSNNAPYVFGSGTKVAVLGQPKAAPS
notes: as for B1
binding result [12]: binds
binding result [13]: no binding (tested: 10 µg/ml)
binding result [2]: no binding (tested: 10 µg/ml)
binding result [4]: no binding (tested: 10 µg/ml)
binding result [14]: no binding

B4: PepI-58 scFv (scFv)
scFv: EVQLVQSGGGLVQPGGSLRLSCSASGFTFSNYAMHWVRRAPGKGLEYVSAISSNGGSTYYADSVKGRFTISRDNPKNTLYLQMNSLRAEDTAVYYCVRGRPYPLDVWGKGTLVTVSSGGGGSGGGGSGGGGSQSVLTQPPSASGTPGQRVTISCSGSSSNIESHAVNWYQHLPGSAPKLLIYFNNHRPSGVPERFSASKSGTSASLAISGLQSEDEADYYCAAWDDSLNGPVFGGGTKLTVLGQPKAAPS
notes: also called anti-MRP3 PepI-58scFv; not shown: Myc and hexahistidine tags from the pET 22(+) vector, at the C terminus
Ka [1]: 2.1e+07 M⁻¹
koff [15]: 0.0034 s⁻¹
binding result [6]: binds
binding result [16]: no binding (tested: 10 ug/ml)
binding result [10]: no binding (tested: 10 ug/ml)
binding result [11]: no binding (tested: 10 ug/ml)
